The values below come from patent publication US20190100563A1 (UNIVERSITY COURT OF THE UNIVERSITY OF EDINBURGH, published 2019).

Test [1] concerns the target Human C3d (plasma-purified) (human) (UniProt P01024). Put plainly: SPR (Biacore), coupled C3d.
For test [2], the target named is Human C3b (plasma-purified) (human) (UniProt P01024). Put plainly: SPR (Biacore), coupled C3b.
In test [3] the target is Human complement factor H purified from plasma (human) (UniProt P08603). Put plainly: SPR, TIGR4 fragment on NTA chip, CFH as analyte.
For test [4] the target is unchanged. Put plainly: SPR, immobilised TIGR4 fragment, FH as analyte.
For test [5] the target is unchanged. Put plainly: SPR.
The target in test [6] is Human C3b (plasma-purified) (human, UniProt P01024 23-667; P01024 749-1663). As to the kind of experiment: SPR, amine-coupled C3b on C1 chip, equilibrium 1:1 fit.
Human C3b (plasma-purified), sequence (P01024 23-667 limits assumed, chain 1 of 2): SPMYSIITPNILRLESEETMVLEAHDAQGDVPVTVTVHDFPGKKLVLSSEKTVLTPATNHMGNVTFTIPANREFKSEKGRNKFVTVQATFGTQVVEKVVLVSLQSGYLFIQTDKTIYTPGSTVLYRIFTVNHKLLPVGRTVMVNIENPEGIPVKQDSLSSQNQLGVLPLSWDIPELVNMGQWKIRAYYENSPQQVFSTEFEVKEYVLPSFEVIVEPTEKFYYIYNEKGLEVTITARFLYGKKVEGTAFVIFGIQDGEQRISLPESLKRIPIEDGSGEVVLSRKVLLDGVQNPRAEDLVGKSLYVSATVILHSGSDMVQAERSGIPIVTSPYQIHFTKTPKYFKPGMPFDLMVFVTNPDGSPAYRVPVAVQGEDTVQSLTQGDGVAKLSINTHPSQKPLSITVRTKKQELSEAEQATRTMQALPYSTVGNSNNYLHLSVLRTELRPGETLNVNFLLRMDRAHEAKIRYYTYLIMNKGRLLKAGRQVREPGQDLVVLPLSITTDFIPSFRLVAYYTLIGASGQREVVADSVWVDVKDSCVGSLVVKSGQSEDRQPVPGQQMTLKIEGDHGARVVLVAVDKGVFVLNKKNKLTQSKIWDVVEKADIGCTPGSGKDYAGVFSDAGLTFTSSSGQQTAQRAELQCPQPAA
Human C3b (plasma-purified), sequence (P01024 749-1663 limits assumed, chain 2 of 2): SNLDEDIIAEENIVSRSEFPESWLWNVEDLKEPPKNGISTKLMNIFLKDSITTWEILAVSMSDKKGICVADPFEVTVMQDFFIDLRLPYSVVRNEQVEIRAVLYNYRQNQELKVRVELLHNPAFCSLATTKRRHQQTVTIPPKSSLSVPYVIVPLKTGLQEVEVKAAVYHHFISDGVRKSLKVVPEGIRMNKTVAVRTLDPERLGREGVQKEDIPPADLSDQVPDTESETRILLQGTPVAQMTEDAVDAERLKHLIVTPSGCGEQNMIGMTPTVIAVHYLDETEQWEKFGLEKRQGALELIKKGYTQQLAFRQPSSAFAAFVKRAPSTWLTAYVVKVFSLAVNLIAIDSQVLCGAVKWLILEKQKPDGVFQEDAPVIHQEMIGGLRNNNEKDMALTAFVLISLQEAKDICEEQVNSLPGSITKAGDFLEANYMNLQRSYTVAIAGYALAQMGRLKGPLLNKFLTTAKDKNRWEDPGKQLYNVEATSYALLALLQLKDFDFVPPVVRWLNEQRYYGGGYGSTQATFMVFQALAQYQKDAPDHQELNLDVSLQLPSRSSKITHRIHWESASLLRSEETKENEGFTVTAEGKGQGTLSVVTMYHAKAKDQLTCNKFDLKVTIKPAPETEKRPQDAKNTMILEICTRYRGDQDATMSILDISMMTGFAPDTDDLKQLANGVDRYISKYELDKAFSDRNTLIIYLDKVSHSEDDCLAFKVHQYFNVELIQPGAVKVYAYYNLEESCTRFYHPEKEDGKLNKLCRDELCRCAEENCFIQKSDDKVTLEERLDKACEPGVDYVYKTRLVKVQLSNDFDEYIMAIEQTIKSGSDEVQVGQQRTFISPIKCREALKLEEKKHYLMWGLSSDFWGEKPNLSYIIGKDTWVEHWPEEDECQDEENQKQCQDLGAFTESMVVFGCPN
Protocol: The sensor chip was regenerated by 2×30 s injections of 1 M NaCl. Data were analysed using the Biacore evaluation software and equilibrium affinity parameters were calculated using a 1:1 binding affinity model.
Commercially sources plasma-purified human C3b, C3c and C3d were immobilized using standard amine coupling to different channels of the same C1 SPR chip (Biacore).
The target of test [7] is T1, Human complement factor H purified from plasma (human, UniProt P08603 19-1231).
T1 construct: also called Plasma CFH; plasma-purified CFH
Put plainly: SPR.

In test [8] the target is T1, Human complement factor H purified from …. As to the kind of experiment: not stated there (SPR in the examples).
Test [9] has the same target. Put plainly: SPR, immobilised PspC fragment, CFH flowed over.
The target is the same in test [10]. As to the kind of experiment: SPR, same assay as for PspCN (37-140).

Changes are numbered by the printed parent chain. In names and notes the source's numbering stands.

Human C3b (plasma-purified) (human), sequence (P01024 23-667 limits assumed, chain 1 of 2): as the sequence (P01024 23-667 limits assumed, chain 1 of 2) above
Human C3b (plasma-purified) (human), sequence (P01024 749-1663 limits assumed, chain 2 of 2): as the sequence (P01024 749-1663 limits assumed, chain 2 of 2) above
Human C3d (plasma-purified) (human), sequence (P01024 1002-1303 limits assumed): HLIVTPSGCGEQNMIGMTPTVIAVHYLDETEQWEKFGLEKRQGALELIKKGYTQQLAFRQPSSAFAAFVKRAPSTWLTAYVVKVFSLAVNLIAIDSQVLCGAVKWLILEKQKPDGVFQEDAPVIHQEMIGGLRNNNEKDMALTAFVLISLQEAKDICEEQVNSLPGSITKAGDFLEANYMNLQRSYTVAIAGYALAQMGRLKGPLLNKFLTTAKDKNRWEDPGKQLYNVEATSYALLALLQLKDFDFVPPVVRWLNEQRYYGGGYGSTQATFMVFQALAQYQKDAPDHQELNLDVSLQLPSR

As to CFH:TIGR4 (37-179) complex, the Kd in [1] stood at 1200 nM; in test [2] it was 280 nM.
Regarding “PspCN (TIGR4 68-148), fragment of PspC (CbpA) of S. pneumoniae strain TIGR4”, the Kd in test [3] was below 0.018 nM; in [4] it was below 0.018 nM; in test [5], 0.001 pM.

B1: rCFH-D1119G:PspCN complex (other)
chain 1: EDCNELPPRRNTEILTGSWSDQTYPEGTQAIYKCRPGYRSLGNVIMVCRKGEWVALNPLRKCQKRPCGHPGDTPFGTFTLTGGNVFEYGVKAVYTCNEGYQLLGEINYRECDTDGWTNDIPICEVVKCLPVTAPENGKIVSSAMEPDREYHFGQAVRFVCNSGYKIEGDEEMHCSDDGFWSKEKPKCVEISCKSPDVINGSPISQKIIYKENERFQYKCNMGYEYSERGDAVCTESGWRPLPSCEEKSCDNPYIPNGDYSPLRIKHRTGDEITYQCRNGFYPATRGNTAKCTSTGWIPAPRCTLKPCDYPDIKHGGLYHENMRRPYFPVAVGKYYSYYCDEHFETPSGSYWDHIHCTQDGWSPAVPCLRKCYFPYLENGYNQNYGRKFVQGKSIDVACHPGYALPKAQTTVTCMENGWSPTPRCIRVKTCSKSSIDIENGFISESQYTYALKEKAKYQCKLGYVTADGETSGSITCGKDGWSAQPTCIKSCDIPVFMNARTKNDFTWFKLNDTLDYECHDGYESNTGSTTGSIVCGYNGWSDLPICYERECELPKIDVHLVPDRKKDQYKVGEVLKFSCKPGFTIVGPNSVQCYHFGLSPDLPICKEQVQSCGPPPELLNGNVKEKTKEEYGHSEVVEYYCNPRFLMKGPNKIQCVDGEWTTLPVCIVEESTCGDIPELEHGWAQLSSPPYYYGDSVEFNCSESFTMIGHRSITCIHGVWTQLPQCVAIDKLKKCKSSNLIILEEHLKNKKEFDHNSNIRYRCRGKEGWIHTVCINGRWDPEVNCSMAQIQLCPPPPQIPNSHNMTTTLNYRDGEKVSVLCQENYLIQEGEEITCKDGRWQSIPLCVEKIPCSQPPQIEHGTINSSRSSQESYAHGTKLSYTCEGGFRISEENETTCYMGKWSSPPQCEGLPCKSPPEISHGVVAHMSDSYQYGEEVTYKCFEGFGIDGPAIAKCLGEKWSHPPSCIKTDCLSLPSFENAIPMGEKKDVYKAGEQVTYTCATYYKMDGASNVTCINSRWTGRPTCRDTSCVNPPTVQNAYIVSRQMSKYPSGERVRYQCRSPYEMFGDEEVMCLNGNWTEPPQCKDSTGKCGPPPPIDNGGITSFPLSVYAPASSVEYQCQNLYQLEGNKRITCRNGQWSEPPKCLHPCVISREIMENYNIALRWTAKQKLYSRTGESVEFVCKRGYRLSSRSHTLRTTCWDGKLEYPTCAKR
chain 2: ATENEGSTQAATSSNMAKTEHRKAAKQVVDEYIEKMLREIQLDRRKHTQNVALNIKLSAIKTKYLRELNVLEEKSKDELPSEIKAKLDAAFEKFKKDTLKPGEK
notes: also called PspCN:CFH (D1119G)
The molecule B1 showed an equilibrium dissociation constant (Kd) in [6] of 320 nM.

B2: rCFH:PspCN complex (other)
chain 1: B1 chain 1 with G1101D
chain 2: B1 chain 2
notes: also called CFH (wt):PspCN
The molecule B2 displayed a Kd in test [6] of 160 nM.

B3: Recombinant human CFH, wild-type sequence, from Pichia pastoris (other)
chain: B1 chain 1 with G1101D
notes: also called rCFH; CFH (wt)
In turn, B3 gave a Kd in test [6] of 580 nM.

B4: Recombinant human CFH (D1119G) from Pichia pastoris (other)
chain: B1 chain 1
notes: also called rCFH-D1119G; rCFH (D1119G)
B4 had a Kd in [6] of 540 nM.

B5: sPspCNR1 (N-terminally hexaHis-SUMO-tagged PspC residues 37-292, strain D39, including the R1 domain) (other)
chain: ATENEGSTQAATSSNMAKTEHRKAAKQVVDEYIEKMLREIQLDRRKHTQNVALNIKLSAIKTKYLRELNVLEEKSKDELPSEIKAKLDAAFEKFKKDTLKPGEKVAEAKKKVEEAKKKAEDQKEEDRRNYPTNTYKTLELEIAEFDVKVKEAELELVKEEAKESRNEGTIKQAKEKVESKKAEATRLENIKTDRKKAEEEAKRKADGKLKEANVATSDQGKPKGRAKRGVPGELATPDKKENDAKSSDSSVGEETL
notes: not shown: N-terminal hexaHis-SUMO tag from the pE-SUMOpro Kan vector
In the case of B5, the binding result in test [7] is “binds”.

B6: PspC (62-140) (other)
chain: KQVVDEYIEKMLREIQLDRRKHTQNVALNIKLSAIKTKYLRELNVLEEKSKDELPSEIKAKLDAAFEKFKKDTLKPGEK
The molecule B6 registered a Kd in test [8] of around 0.05 pM.

B7: PspC (52-140) (other)
chain: MAKTEHRKAAKQVVDEYIEKMLREIQLDRRKHTQNVALNIKLSAIKTKYLRELNVLEEKSKDELPSEIKAKLDAAFEKFKKDTLKPGEK
For the molecule B7, the binding result in test [9] is on record as “binds”.

B8: PspC (37-120) (other)
chain: ATENEGSTQAATSSNMAKTEHRKAAKQVVDEYIEKMLREIQLDRRKHTQNVALNIKLSAIKTKYLRELNVLEEKSKDELPSEIK
Regarding B8, the “decrease in binding affinity against PspCN (37-140)” value (“decrease in binding affinity” below) in [10] is ≥ 3 orders of magnitude.

B9: PspC (37-110) (other)
chain: ATENEGSTQAATSSNMAKTEHRKAAKQVVDEYIEKMLREIQLDRRKHTQNVALNIKLSAIKTKYLRELNVLEEK
For the molecule B9, the “decrease in binding affinity” value in [10] was ≥ 3 orders of magnitude.

B10: PspC (37-130) (other)
chain: ATENEGSTQAATSSNMAKTEHRKAAKQVVDEYIEKMLREIQLDRRKHTQNVALNIKLSAIKTKYLRELNVLEEKSKDELPSEIKAKLDAAFEKF
For the molecule B10, the “decrease in binding affinity” value in test [10] is ≥ 3 orders of magnitude.

B11: SUMO (fusion partner alone) (other, UniProt Q12306 3-98, looked up)
chain: DSEVNQEAKPEVKPEVKPETHINLKVSDGSSEIFFKIKKTTPLRRLMEAFAKRQGKEMDSLRFLYDGIRIQADQTPEDLDMEDNDIIEAHREQIGG
As to B11, in [7], the binding result was “no binding”.
